Positions count from the first letter of the chain named. Where two headings read alike, the source gives them in different places.

Common to all, as to assay: SPR
A general note: Surface plasmon resonance follows binding to a sensor surface in real time, without labels.

The target in assay [1] is T1, human CD25-extracellular domain (CD25-ECD) (UniProt P01589 22-240).
T1 chain: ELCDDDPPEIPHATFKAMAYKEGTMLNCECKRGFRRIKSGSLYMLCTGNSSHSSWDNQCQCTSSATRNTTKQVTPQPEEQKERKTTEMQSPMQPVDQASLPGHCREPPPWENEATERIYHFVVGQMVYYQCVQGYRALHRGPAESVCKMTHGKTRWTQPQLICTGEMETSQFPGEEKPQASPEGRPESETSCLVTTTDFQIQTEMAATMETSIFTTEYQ

For assay [2], the target named is T1, human CD25-extracellular domain ….
The target in assay [3] is cynomolgus CD25.
A further assay deals with cCD25.
In assay [4] the target is T1, human CD25-extracellular domain ….
The target of assay [5] is cynomolgus CD25. The source holds these as a separate data set.
Assay [6] has as its target cynomolgus CD25. This is another data set of the same source.
For assay [7], the target named is T1, human CD25-extracellular domain ….
The target is the same in assay [8].
The target is the same in assay [9].
Assay [10] shares this target.
The next assay addresses 83B05Hu1_A.
The target of assay [11] is T1, human CD25-extracellular domain ….
The target in assay [12] is cynomolgus CD25. This is another data set of the same source.
The target of assay [13] is T1, human CD25-extracellular domain ….
Assay [14] concerns the target cynomolgus CD25. The source holds these as a separate data set.
Assay [15] concerns the target T1, human CD25-extracellular domain ….

B1: humanized anti-CD25 V-body 47D3 (VHH)
VHH: EVQLLESGGGLVQPGGSLRVSCAASGRTFSWNGMGWFRQAPGKEREFVAAISQSGGRTRYADSVKGRFTISRDNAKNTVYLQMNSLRPEDTAVYYCAASDFLLATTISAYDYWGQGTQVTVSS
Take B1: the Kd in assay [1] and in assay [2] was 1.6 nM in each case.

B2: 47D3 (VHH)
VHH: B1 VHH
Turning to B2, the Kd with cynomolgus CD25 [3] and with cCD25 was 49 nM throughout.

B3: ODY-83B05Hu1 (VHH)
VHH: EVQLLESGGGLVQPGGSLRLSCAASGFTLDYYAIGWFRQAPGKEREGVLSISSTDGRTYYADSVKGRFTISRDNPKNTVYLQLNSLRPEDTAVYYCAAKRLGPMVHRYSLEVLTPLFLDEYDYWGQGTQVTVSS
With B3, the equilibrium dissociation constant (Kd) was determined as 35 nM in assay [4] and 97 nM with cynomolgus CD25 [5].

B4: ODY-83F07Hu1 (VHH)
VHH: B3 VHH with R107Q
As to B4, the Kd with cynomolgus CD25 [6] came to 97 nM; in assay [7], 58 nM.

B5: 83B05Hu1_L (antibody, V domains shown)
VH: B3 VHH with M104L
The molecule B5 returned an equilibrium dissociation constant (Kd) in [8] of 61 nM.

B6: 83F07Hu1_L (antibody, V domains shown)
VH: B3 VHH with M104L, R107Q
Take B6: the dissociation constant (Kd) in assay [9] is 97 nM.

B7: ODY-N2003Hu1 (antibody, V domains shown)
VH: EVQLVESGGGLVQPGGSLRLSCAASGRKFSTLIMAWYRQAPGKQRELVATIDRDGTTTYADSVKGRFTISRDNAKNTVYLQMNSLRPEDTAVYYCSTLRYWGQGTQVTVSS
Turning to B7, in assay [10], the affinity, expressed as Kd, was 7.6 nM.

B8: ODY-N2002Hu1 (antibody, V domains shown)
VH: B7 VH with A24V, K28S, D54G, S96K
Turning to B8, in assay [10], the Kd was found to be 17 nM.

B9: human CD25 (receptor)
chain: T1 chain
In the assay with 83B05Hu1_A, B9 returned a Kd of 76 nM.

B10: ODY-83B03Hu1 (VHH)
VHH: EVQLVESGGGLVQPGGSLRLSCAASGMPLVAMGWYRQAPGKQRELVASISSGGNTGYADSVKGRFTISRDNAKKTVYLQMNSVRPEDTGVYYCNIYRSQVPPTRYSWGQGTQVTVSS
On to B10, for which the Kd in [11] is 21 nM; with cynomolgus CD25 [12] it was 112 nM.

B11: humanized anti-CD25 V-body 46A3 (VHH)
VHH: EVQLLESGGGLAQPGGSLRLSCAASGFTFSNYAMSWARQAPGKGLEWVSGIYSDGSGTYYADSVKGRFTISRDNAKNTVYLQMNSLRPEDTAVYYCAKGRNSGSYYPWDDYWGQGTQVTVSS
As to B11, the Kd in assay [13] and in assay [1] was 49 nM each time.

B12: ODY-46A3 (VHH)
VHH: B11 VHH
In the case of B12, the Kd with cynomolgus CD25 [14] turned out to be 34 nM.

B13: ODY-N1813Hu1 (antibody, V domains shown)
VH: B11 VHH with G55S, N101G, W108F, D109E
For the molecule B13, the Kd in assay [15] was determined as 50 nM.

The Kd is the concentration at which binding is half-saturated. A lower Kd goes with a tighter complex.

The record behind these values is patent US20260258143A1 (published 2026).
